In the supplement of paper PMC10724198:
± gives the standard deviation of the averaged measurements.

Test system: Saccharomyces cerevisiae
Test: protein stability index of tFT-peptide fusion (C-terminal peptide) (PSI (0-1 scale)); higher = more stable (slower turnover)
Details: genetic background: wild type; temperature: 30 C
Experimental: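 Multiplexed protein stability (MPS) profiling in S. cerevisiae. Random 12-aa peptides (tFT-X12 library) are fused to the C-terminus of a sfGFP-mCherry tandem fluorescent timer, after mCherry and a GGGS linker. Cells are FACS-sorted into 8 mCherry/sfGFP bins and deep-sequenced. The protein stability index (PSI) is the read-weighted bin average, scaled from 0 (unstable) to 1 (stable). Only peptides with >10 reads are reported; cells were grown at 30 °C in SC-His with glucose.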
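Further: PSI is a weighted mean of sequencing reads over stability bins, variants kept only with over 10 reads, mCherry proximal and sfGFP distal, peptide attached via GGGS linker.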

Sequence	protein stability index
STLVHSDESQLA	0.633 ± 0.092
CLPHYSQVLLNW	0.715 ± 0.098
KENEKQRKSHKK	0.687 ± 0.043
LTSRPIPFLLRG	0.666 ± 0.014
PPASPPLPPPRP	0.689 ± 0.042
SSPFCPLFQNPL	0.757 ± 0.056
DKLSSRIPCSPS	0.679 ± 0.0077
APPPLLPLRPFR	0.606 ± 0.1
SVNHVDIANSIL	0.647 ± 0.011
FQWVLDGYRCWD	0.694 ± 0.098
IKKKKKKENKRR	0.741 ± 0.014
PPPPALWPPPSP	0.735 ± 0.013
LLYAFSSFLRAP	0.647 ± 0.046
IVGKMRRQKTKI	0.685 ± 0.057
GGWGRGERRSRE	0.652 ± 0.045
ACCIFAFHRSLS	0.487 ± 0.032
RSWGRVCFGGVV	0.657 ± 0.054
CLAAPIQDGGLT	0.684 ± 0.086
EPGQWRAASYGF	0.71 ± 0.024
LHFYSLMEFQCD	0.695 ± 0.038
WWSAHIRAGASL	0.672 ± 0.017
SESKGAMCQRNA	0.6475 ± 0.0054
SFRQSRLKRRGY	0.672 ± 0.15
PIPHHLRVASPA	0.6162 ± 0.00068
GRRGPGRARRWG	0.658 ± 0.037

Sequence	protein stability index
VFKLRLPAVPHT	0.734 ± 0.09
ITTLRSLWVVGL	0.609 ± 0.085
PPLKPRTSRPTI	0.682 ± 0.009
PSGVKILFELKP	0.645 ± 0.03
LPLYPFGLLLPL	0.686 ± 0.043
ERKEERGREGKR	0.628 ± 0.031
RVDFRLPVYLGI	0.61 ± 0.015
YPARSPPSPLSL	0.686 ± 0.025
PPSPPPPPPFVP	0.717 ± 0.033
WLFGSFSLLFWL	0.522 ± 0.015
SDCPYVYVRVRD	0.69 ± 0.02
SRVVSPLFNLCL	0.692 ± 0.018
PPPVPPLPSPLP	0.649 ± 0.022
GDGRCAVPFWWG	0.805 ± 0.074
SRYGKVIRKKHE	0.756 ± 0.021
PYWYPRASRGAL	0.699 ± 0.043
QKPHGDVSFQVM	0.662 ± 0.033
PYPPPPRLLVSP	0.7359 ± 0.0056
HPARPRPRLALS	0.666 ± 0.043
PPPLPPLPTALS	0.693 ± 0.0036
SRFDAGYRGTIT	0.68 ± 0.034
RGYVNVWTRLGN	0.717 ± 0.043
PPTPSPATSPPP	0.713 ± 0.034
VREGTKDGGSRV	0.544 ± 0.042
AEAVQQGVTIGG	0.68 ± 0.014

Sequence	protein stability index
LGVGVGGRGVRG	0.745 ± 0.0098
WGVGVCSRVLRS	0.674 ± 0.026
GRVSSTRKVGAI	0.678 ± 0.022
GGVGGPVLGAGG	0.638 ± 0.051
PLPPPPLLPFVL	0.774 ± 0.085
AGARVGAPASTR	0.664 ± 0.028
RNAGYPALDELS	0.6861 ± 0.0047
DSASFAFCCFCD	0.639 ± 0.023
QARSLVRSLCYP	0.677 ± 0.0082
KSILTRTVNSNQ	0.6592 ± 0.0031
LPLSTLGPLARL	0.725 ± 0.18
GAGEGVGSVVVR	0.632 ± 0.052
GAGRRRAQEQQT	0.728 ± 0.015
PSVLLAPTRRHP	0.678 ± 0.0016
PPSPHPSASTRP	0.714 ± 0.04
GKGKETKELIGK	0.711 ± 0.023
PPRGDPRAYLPP	0.654 ± 0.011
YTKTGRQRHHCR	0.677 ± 0.011
GGGRGVVVTCST	0.713 ± 0.038
RVESRFSGTDSF	0.708 ± 0.041
PPPLPRSPPPPF	0.74 ± 0.021
SLPHHRPPHPRT	0.752 ± 0.17
GPCTTFVVLLPE	0.778 ± 0.14
VGVGGVGGFFGC	0.79 ± 0.037
KRNKDFIYTYRL	0.696 ± 0.013

Sequence	protein stability index
CGSHNRGLSSQL	0.676 ± 0.022
FPISPSQSQSLP	0.724 ± 0.076
PPPPPLLTRPLP	0.699 ± 0.081
EVDGISTRAAVC	0.63 ± 0.083
VCGGVGGGDNGG	0.739 ± 0.036
GGGRGGARVGQL	0.661 ± 0.013
SLSPPPPAPRAP	0.663 ± 0.02
PQTSRAPFPPPP	0.7125 ± 0.0058
SPPLHTFSLPFY	0.669 ± 0.021
PPPNLSSGVPFI	0.7051 ± 0.0025
ISLTFNSNSKPM	0.687 ± 0.053
KDCHPVSRYVRC	0.707 ± 0.01
GIYARPRPTQCP	0.6718 ± 0.0037
GGEVGRGRLGVV	0.628 ± 0.018
PPPLPSSPSPLL	0.679 ± 0.022
YHIGSINLTVRQ	0.778 ± 0.083
FGPDFCVRSHLS	0.719 ± 0.03
PLSVSLSLLTPR	0.74 ± 0.13
GGGVVRGLEQRA	0.637 ± 0.074
GKLRTVVCMCYI	0.643 ± 0.1
PSLNPRVSFVNL	0.685 ± 0.0073
HVRARLVVHQRA	0.631 ± 0.047
GGGWGLRVSCGT	0.656 ± 0.071
SFLPPLFPHPPP	0.841 ± 0.031
PSPLLPPPLPPS	0.678 ± 0.046

Sequence	protein stability index
TISEGMSGRRRR	0.759 ± 0.013
SRGMERIWEFGR	0.612 ± 0.036
GQTMDLRKCTGP	0.6436 ± 0.0037
CVAFLAGIVSFL	0.525 ± 0.019
GRYSGSFWSFWS	0.719 ± 0.023
LGNPVLRFILEK	0.597 ± 0.094
AGSDLGLIEGIV	0.685 ± 0.024
PLSTHNSLPRVK	0.691 ± 0.061
RVEGGWGEAWRE	0.803 ± 0.075
PLCVPPRRLFPP	0.716 ± 0.072
GITCAEGAAMKR	0.676 ± 0.022
KRDVRRLYRKRV	0.7052 ± 0.0068
VGVVRAGWGGAV	0.65 ± 0.059
SSLIGHTLRPLV	0.686 ± 0.022
SFNHAKPPLHPA	0.683 ± 0.03
LLESFCVSWCSW	0.617 ± 0.012
INGYRYHTVNIK	0.688 ± 0.03
LPLPHALGSWSY	0.7278 ± 0.0061
PTASDPLPPPPN	0.867 ± 0.13
FQGRLILCIETR	0.5323 ± 0.00074
LRSPPPPAQPFV	0.69 ± 0.0075
TQKKSTQLIKKK	0.698 ± 0.067
KGSLVLGSKCCR	0.681 ± 0.047
TGDNNRGKRDYD	0.678 ± 0.024
NKKKPKRTGKTQ	0.674 ± 0.025

Sequence	protein stability index
GWQCGVNRGGWW	0.752 ± 0.057
PEEGQNASVRPC	0.694 ± 0.023
EIGWEGLAGRGG	0.754 ± 0.029
TPGYWVPPPTIP	0.66 ± 0.027
PPPPPRAPPLPP	0.679 ± 0.029
PPPSPHRLDHLT	0.704 ± 0.016
LRPPPPPASVCR	0.646 ± 0.029
YVSHLLMVGRFI	0.616 ± 0.01
RERRGPTDLKRH	0.712 ± 0.041
PPSPSLRSLPRP	0.626 ± 0.064
VVYFGVVVEGQV	0.514 ± 0.032
CQPTTTCTGGNV	0.693 ± 0.035
DCFISPRIFRPK	0.721 ± 0.023
PSPSVVPASSPP	0.669 ± 0.03
SFCHWRFSFPKC	0.666 ± 0.04
LFPLSSPFPSTS	0.766 ± 0.23
KFASNNMFTRYV	0.745 ± 0.012
FNISVGPATRRV	0.665 ± 0.045
LAPALSHSPPLT	0.715 ± 0.078
VCDFVLALRGLT	0.649 ± 0.029
VGGFRVLCVGLG	0.613 ± 0.04
GGLRGRPPASHR	0.727 ± 0.074
AWLAQIKLGWGL	0.68 ± 0.016
PRASDPPPSPYP	0.766 ± 0.057
TRSNEERKGKKS	0.731 ± 0.14

Sequence	protein stability index
IPPNPPPPNTIA	0.557 ± 0.0097
FSRPPPFPLFSS	0.69 ± 0.03
EERAGTRGGRGR	0.743 ± 0.13
GGGWGRSKTETT	0.672 ± 0.023
CSLLCKCHLRRL	0.712 ± 0.1
IERCGIVKEVKG	0.74 ± 0.012
SPPSPRLPPPLL	0.77 ± 0.046
PPPLLSPAFFLP	0.727 ± 0.053
AGHGGWREAGGG	0.685 ± 0.0076
GRKWRTSCQCVS	0.586 ± 0.026
KEWKSESTVLEV	0.7468 ± 0.0054
SQLRSSTSARYV	0.692 ± 0.14
PPPTSPPRPASP	0.697 ± 0.059
PSPPPSQSLPPP	0.717 ± 0.043
LPPPSPPPPLSP	0.621 ± 0.01
DASELLGRPVVL	0.748 ± 0.012
FLGCFIPLPCTP	0.645 ± 0.012
SPGRPGLGGGAW	0.776 ± 0.26
KLKKKKISNVEN	0.612 ± 0.0081
LEGILFGPKIAT	0.6227 ± 0.0049
YSPVPPPTRPPL	0.7069 ± 0.0017
YFGGRGARGRER	0.676 ± 0.027
QEALLAPEYSVD	0.7 ± 0.0096
KPKKKKKDEQTI	0.672 ± 0.035
SKRYREKIVRNK	0.677 ± 0.04

Sequence	protein stability index
FLARPIACPRRV	0.701 ± 0.008
GFEAFGPFIPAF	0.681 ± 0.019
KIDKNHGILPNY	0.679 ± 0.035
CIYPYSSLLMRI	0.532 ± 0.028
FFVGAGVTEGLG	0.692 ± 0.033
PVSSPSSPLPPL	0.678 ± 0.054
AACGELLKYSLS	0.576 ± 0.011
GVWGGRGQGWYR	0.674 ± 0.0096
GIRFGLVCYPNF	0.6537 ± 0.0025
SPPPFFSPSLPP	0.65 ± 0.09
PLSPPPSLPVPL	0.659 ± 0.051
VSHKETNKIKPN	0.701 ± 0.097
TSSPHGQSVTEP	0.67 ± 0.05
RKKEKKQKKKKG	0.688 ± 0.043
DIIGMPLLMKKK	0.693 ± 0.03
LRTRKKTIDHHN	0.663 ± 0.013
RRVFSAGTRCGI	0.761 ± 0.11
VWAVALSRQGPC	0.689 ± 0.016
GFMSFAVTCGLL	0.688 ± 0.11
RFSLGLIFLPSL	0.68 ± 0.044
VVFTSISFGLFV	0.572 ± 0.044
